Results taken from patent publication US20120058537A1.

Tests used:
[1] = biological target: fibrin clots (formed from fibrinogen with bovine thrombin); assay: fibrin clot binding; ratio against full length t-PA
[2] = biological target: fibrin clots (formed from fibrinogen with bovine thrombin); assay: fibrin clot binding at 0.2 mg/mL fibrinogen; bound = total minus free enzyme in the supernatant
[3] = biological target: fibrin clots (formed from fibrinogen with bovine thrombin); assay: fibrin clot binding at 0.3 mg/mL fibrinogen; bound = total minus free enzyme in the supernatant
[4] = biological target: full length t-PA (tissue-type plasminogen activator), commercially available t-PA, Actylase (human) (UniProt P00750); assay: cell-based or functional assay
[5] = biological target: chimeric truncated and mutant variant of t-PA (truncated-mutant t-PA, KHRR 128-131 substituted with AAAA) (human) (UniProt P00750); assay: cell-based or functional assay

Substance | fibrin affinity relative to full length t-PA (set to 100%) [1] | fibrin affinity (percent of enzyme bound to fibrin clot) [2] | fibrin affinity (percent of enzyme bound to fibrin clot) [3] | residual activity after inhibition by rPAI-1 [4] | residual activity after inhibition by rPAI-1 [5]
chimeric truncated t-PA (GHRP-SYQ-K2S) (from UniProt P00750 211-562) (enzyme) | 86% | 38% | 46% | – | –
full length t-PA (tissue-type plasminogen activator), commercially available t-PA, Actylase (from UniProt P00750 36-562) (enzyme) | – | 44% | 53% | – | –
human rPAI-1 (recombinant plasminogen activator inhibitor-1) (from UniProt P05121 24-402) | – | – | – | 65% | 85%
